Kd, binding and KD data for 3 compounds are collected here from publication PMC9687680 (2022).

Data set [1] addresses T1, CD133 on Huh7 cells (human) (UniProt O43490).
T1 sequence: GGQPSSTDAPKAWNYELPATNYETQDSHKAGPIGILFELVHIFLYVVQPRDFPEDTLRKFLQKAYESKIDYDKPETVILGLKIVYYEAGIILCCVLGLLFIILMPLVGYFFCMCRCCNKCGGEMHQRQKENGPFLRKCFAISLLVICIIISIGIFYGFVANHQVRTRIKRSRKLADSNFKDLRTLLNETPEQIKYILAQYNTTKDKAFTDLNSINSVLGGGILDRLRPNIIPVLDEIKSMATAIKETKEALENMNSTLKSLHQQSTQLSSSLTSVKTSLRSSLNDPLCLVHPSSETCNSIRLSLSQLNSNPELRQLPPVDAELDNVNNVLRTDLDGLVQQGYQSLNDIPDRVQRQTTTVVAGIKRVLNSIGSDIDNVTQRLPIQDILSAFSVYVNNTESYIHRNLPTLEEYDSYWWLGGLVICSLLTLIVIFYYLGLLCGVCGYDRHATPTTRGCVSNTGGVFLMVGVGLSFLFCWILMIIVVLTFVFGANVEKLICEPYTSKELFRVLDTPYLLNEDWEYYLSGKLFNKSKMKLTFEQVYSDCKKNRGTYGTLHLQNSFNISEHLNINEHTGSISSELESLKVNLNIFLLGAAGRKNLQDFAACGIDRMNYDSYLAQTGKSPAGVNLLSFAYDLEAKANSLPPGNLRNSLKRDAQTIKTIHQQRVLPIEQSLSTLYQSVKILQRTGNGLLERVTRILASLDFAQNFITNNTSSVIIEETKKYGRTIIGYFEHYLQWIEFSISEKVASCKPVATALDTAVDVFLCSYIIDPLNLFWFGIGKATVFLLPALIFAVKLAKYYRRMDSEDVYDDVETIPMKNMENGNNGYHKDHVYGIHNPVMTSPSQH
The data set can be described thus: flow cytometry (cell binding). The following applies: Huh7 cells, 37 C, Aptamer folded in PBS with 2.5 mM Mg2+ (85 C 5 min, RT, 37 C 15 min), binding to cells in PBS-based blocking buffer, 30 min, CD133-negative HEK293T cells …. For orientation: Flow cytometry measures light scatter and fluorescence of single cells or particles in a stream.

The target in data set [2] is T2, CD133 on PLC/PRF/5 cells (human) (UniProt O43490).
T2 sequence: T1 sequence
The data set can be described thus: flow cytometry (cell binding). The following applies: PLC/PRF/5 cells, 37 C, Aptamer folded in PBS with 2.5 mM Mg2+ (85 C 5 min, RT, 37 C 15 min), binding to cells in PBS-based blocking buffer, 30 min, CD133-negative HEK293T cells ….

Data set [3] deals with CD133 aptamer (hybrid RNA-DNA, 10-bp DNA GC stem) (DNA:RNA, aptamer, 2'-fluoro on all pyrimidines (C and U) of the RNA part; 5-methyl-dC (printed 5'-methyl-dC) in the DNA stem) CGCGCGCCGCUCCUACAUAGCGGCGCGCG
As to the kind of experiment: DOX fluorescence quenching. To be noted: DOX 10 µM, aptamer 1-10 µM, 30 min; >90% quenching at aptamer:DOX 0.27.

The test system is the same in data set [4]. The data set can be described thus: ITC. To be noted: Mg2+ 2.5 mM, PBS (Na+, K+), 25 °C, DOX 100 µM injected, aptamer 2 µM or 100 µM (supplement).
[5] abbreviates: apparent Kd, 2'-fluoro on all pyrimidines, 5-methyl-dC in stem, hexylamine cap at 3' end.
[6] abbreviates: 2'-O-methyl instead of 2'-fluoro on pyrimidines (C and U).

Consider “CGCGCGCCGCUCCUACAUAGCGGCGCGCG [CD133 aptamer (RNA loop, DNA GC stem)]”, for which the values for the Kd in data set [1] (setting [5]) and in data set [2] (setting [5]) were 27 nM and 11 nM, respectively.
For “CGCGCGCCGCUCCUACAUAGCGGCGCGCG [negative control CD133 aptamer (2'-OMe)]”, the Kd in data set [1] (setting [6]) and in data set [2] (setting [6]) was more than 1000 nM each time.
With `COc1cccc2c1C(=O)c1c(O)c3c(c(O)c1C2=O)C[C@@](O)(C(=O)CO)C[C@@H]3O[C@H]1C[C@H](N)[C@H](O)[C@H](C)O1`, the binding entry in data set [3] is recorded as “yes”. The KD in data set [4] is on record as 634 nM.

The term KD denotes the concentration at which binding is half-saturated. Low readings indicate tighter binding, high ones weaker binding.
